Tests used:
[1] = biological target: human FcγRI on cells (monocytes, IFN-γ-treated neutrophils, U937 cells) (human) (UniProt P12314); experiment: flow cytometry, FITC antibody on monocytes, average of duplicates
[2] = biological target: T1, soluble fusion protein consisting of the extracellular domain of human FcγRI and human IgM heavy chain … (human, UniProt P12314 16-292; P01871 106-453); experiment: ELISA on captured sFcγRI-µ, in excess human IgG1 lambda
T1 construct: From supernatant of transiently transfected COS cells, captured on plates with goat anti-human IgM; also called FcRI/IgM fusion protein; FcγRI/IgM heavy chain fusion protein
T1 sequence (P12314 other isoform, or with tags, fused parts or gaps): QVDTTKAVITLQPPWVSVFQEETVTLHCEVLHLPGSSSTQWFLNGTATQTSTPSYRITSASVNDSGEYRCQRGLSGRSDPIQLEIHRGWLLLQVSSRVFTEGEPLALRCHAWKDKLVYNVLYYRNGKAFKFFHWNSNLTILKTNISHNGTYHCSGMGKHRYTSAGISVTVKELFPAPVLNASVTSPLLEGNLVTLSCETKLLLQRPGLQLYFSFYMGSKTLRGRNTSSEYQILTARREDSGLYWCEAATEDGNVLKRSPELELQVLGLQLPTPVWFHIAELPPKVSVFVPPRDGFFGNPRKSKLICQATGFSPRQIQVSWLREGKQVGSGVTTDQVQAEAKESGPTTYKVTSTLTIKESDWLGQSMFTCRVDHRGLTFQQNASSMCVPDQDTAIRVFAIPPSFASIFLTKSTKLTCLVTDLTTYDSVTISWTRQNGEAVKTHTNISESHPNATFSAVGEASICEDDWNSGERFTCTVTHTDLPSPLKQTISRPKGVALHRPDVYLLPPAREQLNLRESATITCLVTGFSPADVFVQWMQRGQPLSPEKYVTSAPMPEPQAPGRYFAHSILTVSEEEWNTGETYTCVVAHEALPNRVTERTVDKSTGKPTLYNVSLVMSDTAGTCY
Procedure: The binding of the antibodies to antigen was measured by ELISA. Wells of a microtitre plate (Immunlon 1, Dynatech, Chantilly, Va.) were coated with 200 ng goat anti-human IgM antibodies (Sera-lab, Crawley Down, U.K.) in 100 μl 50 mM carbonate buffer pH 9.6 at 37° C. for at least one hour. Wells were emptied and washed once with PBST and blocked with 1% BSA in PBS at room temperature for thirty minutes. The wells were emptied and washed with PBST and Cos supernatant containing FcRI/IgM fusion protein was added and incubated for one hour at room temperature. Wells were then emptied and washed three times with PBST and test antibodies diluted in 1% BSA/PBS were added and incubated for one hour at room temperature. In addition, each well contained 2 μg human IgGI, lambda antibody (Sigma, Poole, U.K.) The wells were then emptied, washed three times with PBST and 40 ng peroxidase goat anti-human kappa constant region antibodies (Sera-Lab, Crawley Down, U.K.) in 100 μl 1% BSA/PBS added to each well. After incubation for one hour at room temperature, the wells were emptied, washed three time with PBST and 10 μl HPD substrate buffer was added.
The wells of a microtiter plate were coated with goat anti-human IgM antibodies (Sera-Lab, Crawley Down, U.K.) in 50 mM bicarbonate buffer, pH 9.6. […]

Chain of human FcγRI on cells (monocytes, IFN-γ-treated neutrophils, U937 cells) (human) (P12314 16-374): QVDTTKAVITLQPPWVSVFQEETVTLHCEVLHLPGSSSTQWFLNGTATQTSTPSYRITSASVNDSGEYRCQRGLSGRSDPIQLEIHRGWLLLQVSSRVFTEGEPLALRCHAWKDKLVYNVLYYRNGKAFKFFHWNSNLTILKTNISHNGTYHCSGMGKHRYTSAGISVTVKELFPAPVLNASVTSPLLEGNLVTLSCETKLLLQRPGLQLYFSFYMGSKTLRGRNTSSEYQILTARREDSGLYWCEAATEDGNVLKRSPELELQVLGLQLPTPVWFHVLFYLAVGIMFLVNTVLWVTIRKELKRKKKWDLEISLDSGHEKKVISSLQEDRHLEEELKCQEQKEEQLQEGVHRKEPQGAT

Work on “humanized mAb 22, KOL VH/REI Vκ mAb, designated H22 (antibody)” yielded an antibody sites per cell (monocytes) (antibody sites per cell) [1] of 10500.

B1: humanized NEWM VH/REI Vκ mAb (antibody, human IgG1, V domains shown)
VH: QVQLQESGPGLVRPSQTLSLTCTVSGFIFSDNYMYWVRQPPGRGLEWIGTISDGGSYTYYPDSVKGRVTMLRDTSKNQFSLRLSSVTAADTAVYYCARGYYRYEGAMDYWGQGSLVTVSS
VL: DIQLTQSPSSLSASVGDRVTITCKSSQSVLYSSNQKNYLAWYQQKPGKAPKLLIYWASTRESGVPSRFSGSGSGTDFTFTISSLQPEDIATYYCHQYLSSWTFGQGTKVEIK
notes: Human IgG1 and human kappa constant regions; also called NEWM/REI based antibody; NMVK/HuVK
B1 was tested, and the “fold lower affinity than the chimeric mAb” value [2] was ~5 fold.
